Values joined by “and” are separate entries in the source; they are usually repeats but may differ in a detail not shown here. Equal entries are not always repeated.
Settings: Sus scrofa, Thermal, DSC, Sodium phosphate 5 mM, reversible: yes, whole UniProt chain shown

B1: Gastricsin wild type, P30879 (protein)
chain: SVIKVPLKKLKSIRQAMKEKGLLEEFLKTHKYDPAQRYRIGDISVALEPMAYLEAAYFGEISIGTPPQNFLVL
Tm (pH 6): 66.2 °C
unfolding enthalpy (calorimetric) (pH 6): 254 kcal/mol
unfolding enthalpy (calorimetric) (pH 6.4): 248 kcal/mol and 269 kcal/mol
Tm (pH 6.8): 47.2 °C
unfolding enthalpy (calorimetric) (pH 6.8): 221 kcal/mol
Tm (pH 7.2): 56.1 °C
unfolding enthalpy (calorimetric) (pH 7.2): 195 kcal/mol
Tm (pH 7.3): 39.8 °C
unfolding enthalpy (calorimetric) (pH 7.3): 192 kcal/mol
Tm (pH 7.7): 55 °C
unfolding enthalpy (calorimetric) (pH 7.7): 173 kcal/mol
Tm (pH 8): 51.1 °C
unfolding enthalpy (calorimetric) (pH 8): 182 kcal/mol
Tm (pH 8.2): 33.8 °C
unfolding enthalpy (calorimetric) (pH 8.2): 170 kcal/mol

— FireProtDB (doi:10.1016/0014-5793(94)01308-n)
